Source: patent publication US20240247068A1 (INDUSTRY FOUNDATION OF CHONNAM NATIONAL UNIVERSITY, published 2024)
Residue numbers refer to the chain shown, from its start.

What was measured:
[1] = target: T1, calreticulin (CRT) exposed on the cell membrane of drug-treated CT26 and MC38 cells (UniProt P14211 18-416, limits assumed); assay: confocal microscopy, mitoxantrone-treated CT26 cells, 10 µg/mL monobody, anti-His tag detection
T1 construct: whole, on cells; Target is inferred from cells on which calreticulin exposure was induced by anticancer drugs; cells were fixed with 3% paraformaldehyde; also called calreticulin on the cell surface
T1 sequence (looked up): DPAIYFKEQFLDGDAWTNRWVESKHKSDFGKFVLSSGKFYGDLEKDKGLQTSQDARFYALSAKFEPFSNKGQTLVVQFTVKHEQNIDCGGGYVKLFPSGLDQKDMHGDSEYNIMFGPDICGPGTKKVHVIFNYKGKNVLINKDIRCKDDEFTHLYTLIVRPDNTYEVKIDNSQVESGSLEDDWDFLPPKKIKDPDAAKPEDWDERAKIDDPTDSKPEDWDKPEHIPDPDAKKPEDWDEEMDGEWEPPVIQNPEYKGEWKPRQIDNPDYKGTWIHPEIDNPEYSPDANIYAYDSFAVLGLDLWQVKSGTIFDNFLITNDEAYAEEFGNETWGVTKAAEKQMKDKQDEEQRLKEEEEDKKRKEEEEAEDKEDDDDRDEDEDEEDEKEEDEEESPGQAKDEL
Experimental: In order to verify the binding force of the purified CRT-monobody to calreticulin, the present inventors observed the degree of binding with a confocal microscope after treating the cancer cells with CRT-monobody. Specifically, CT26 (colon cancer) cells, which are cancer cells, were seeded at 1×10⁵ cells per well in chamber slides (154534PAK, Thermo Fisher Scientific) and cultured overnight in a C02 incubator. Then, each of the cells was treated with mitoxantrone (25 μM), which is an anticancer drug, to induce calreticulin on the surface thereof, treated with gemcitabine (15 μM) as a control group, and cultured for 4 hours, washed with PBS, and reacted with 3% paraformaldehyde for 10 minutes to fix the cells. Then, a block buffer (3% BSA in PBS) was treated for 1 hour to prevent the hard-to-bind antibody, and the CRT-monobody (10 μg/mL) of the present invention was treated in each well and reacted for 1 hour to induce binding to calreticulin. […] In addition, Alexa 555 conjugated WGA-555 (1:2000, 3% BSA in PBS) was treated in order to distinguish cell membranes, DAPI-Glod-antifade was treated, and mounting was performed, and the prepared slides were refrigerated under dark conditions.

[2] = target: T1, calreticulin (CRT) exposed on the cell …; assay: flow cytometry, mitoxantrone- or doxorubicin-treated CT26 and MC38 cells, 5 µg/mL, anti-His tag detection
Source text: (§1) The present inventors allowed cancer cells to react with CRT-monobody-Rluc8, and then measured the binding degree in the number of cells in order to more accurately confirm the binding force of CRT-monobody-Rluc8, which was purified according to an embodiment of the present invention, to calreticulin. To this end, CT26, MC38, Hela, and MDA-MB-231 cells were first cultured, and then the expression of calreticulin on the cell surface was induced by the same method (gemcitabine, doxorubicin, and mitoxantrone) as in Example 5. […] Finally, in order to identify cells bound to CRT-monobody, fluorescence signals of the cells were identified using a flow cytometer (BD Bioscience).
(§2) As a result, when the CT26 (colon cancer), MC38 (colon cancer), Hela (uterine cancer), and MDA-MB-231 (breast cancer) cells were not treated with an anticancer drug and when the cells were treated with gemcitabine, no exposure of calreticulin on the cell membrane was confirmed through fluorescence signals for each cell, and there was no signal change after CRT-monobody treatment of the present invention, so that it was confirmed that the CRT-monobody was not bound to the cells.

[3] = target: T2, calreticulin (CRT) exposed on the cell membrane of drug-treated Hela and MDA-MB-231 cells (UniProt P27797 18-417, limits assumed); assay: confocal microscopy, mitoxantrone- or doxorubicin-treated Hela and MDA-MB-231 cells, 10 µg/mL, anti-His tag detection
T2 construct: whole, on cells; Target is inferred from cells on which calreticulin exposure was induced by anticancer drugs; cells were fixed with 3% paraformaldehyde; also called calreticulin on the cell surface
T2 sequence (looked up): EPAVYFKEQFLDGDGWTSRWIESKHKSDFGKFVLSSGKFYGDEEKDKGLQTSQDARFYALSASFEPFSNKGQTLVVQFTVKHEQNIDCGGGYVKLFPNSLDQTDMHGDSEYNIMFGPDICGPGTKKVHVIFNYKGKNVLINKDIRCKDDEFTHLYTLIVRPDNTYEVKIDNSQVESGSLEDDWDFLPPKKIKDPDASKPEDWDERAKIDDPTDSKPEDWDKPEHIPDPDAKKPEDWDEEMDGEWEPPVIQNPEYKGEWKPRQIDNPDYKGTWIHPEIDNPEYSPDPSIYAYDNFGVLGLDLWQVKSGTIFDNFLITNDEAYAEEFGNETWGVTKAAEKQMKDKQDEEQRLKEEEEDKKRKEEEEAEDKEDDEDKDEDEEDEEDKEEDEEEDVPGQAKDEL
Experimental: In order to verify the binding force of the CRT-monobody-Rluc8 protein to calreticulin, the present inventors observed the degree of binding with a confocal microscope after purifying CRT3-R, CRT4-R, and DGR-R as in Example 3 and treating cancer cells with the CRT-monobody-Rluc8 proteins. Specifically, cancer cells such as CT26 (colon cancer), MC38 (colon cancer), Hela (uterine cancer), and MDA-MB-231 (breast cancer) were seeded at 1×10⁵ cells per well in chamber slides (154534PAK, Thermo Fisher Scientific) and cultured overnight in a CO₂ incubator. Then, each of the cells was treated with doxorubicin (25 μM) and mitoxantrone (25 μM), which are anticancer drugs, to induce calreticulin on the surface thereof, treated with gemcitabine (15 μM) as a control group, and cultured for 4 hours, washed with PBS, and reacted with 3% paraformaldehyde for 10 minutes to fix the cells. Then, a block buffer (3% BSA in PBS) was treated for 1 hour to prevent the hard-to-bind antibody, and the CRT-monobody (10 μg/mL) was treated in each well and reacted for 1 hour to induce binding to calreticulin. […] In addition, Alexa 555 conjugated WGA-555 (1:2000, 3% BSA in PBS) was treated in order to distinguish cell membranes, DAPI-Glod-antifade was treated, and mounting was performed, and the prepared slides were refrigerated under dark conditions.

[4] = target: T2, calreticulin (CRT) exposed on the cell …; assay: flow cytometry, mitoxantrone- or doxorubicin-treated Hela and MDA-MB-231 cells, 5 µg/mL, anti-His tag detection
Source text: as §1, §2

B1: CRT3 recombinant CRT-monobody (designed binder)
chain: MASVSDVPRDLEVVAATPTSLLISWKLGFFKRYYRITYGETGGNSPVQEFTVPGSKSTATISGLKPGVDYTITVYAVTGQPMYGQPMYPISINYRTGSHHHHHH
notes: His-tagged protein from E. coli, purified on Ni-NTA
- binding result [1]: binds

B2: CRT6 recombinant CRT-monobody (designed binder)
chain: B1 chain with Q80R, P81G, M82D, Y83S, G84P, Q85A, P86S, M87S, Y88K
notes: His-tagged protein from E. coli, purified on Ni-NTA; BC loop: Int alpha; DE and FG loops marked '-'
- binding result [1]: binds

B3: CRT5 recombinant CRT-monobody (designed binder)
chain: MASVSDVPRDLEVVAATPTSLLISWGQPMYGQPMYYYRITYGETGGNSPVQEFTVPGSKSTATISGLKPGVDYTITVYAVTGRGDSPASSKPISINYRTGSHHHHHH
notes: His-tagged protein from E. coli, purified on Ni-NTA; BC loop: Hep 1; DE and FG loops marked '-'
- binding result [1]: binds

B4: CRT1 recombinant CRT-monobody (designed binder)
chain: MASVSDVPRDLEVVAATPTSLLISWDAPAVTVRYYRITYGETGGNSPVQEFTVPGSKSTATISGLKPGVDYTITVYAVTGQPMYGQPMYPISINYRTGSHHHHHH
notes: His-tagged protein expressed in E. coli BL21(DE3) from pETh plasmid, purified on Ni-NTA; FG loop: Hep 1; BC and DE loops unchanged
- binding result [1]: binds

B5: CRT4-R (recombinant CRT-monobody-Rluc8 of CRT4) (designed binder, not shown: large carriers; small tags and cut ends)
chain: MASVSDVPRDLEVVAATPTSLLISWGQPMYGQPMYYYRITYGETGGNSPVQEFTVPGSKSTATISGLKPGVDYTITVYAVTKLGFFKRPISINYRT
notes: detected with anti-His tag antibody
- binding result [2]: binds
- binding result [3]: binds

B6: CRT4 recombinant CRT-monobody (designed binder)
chain: MASVSDVPRDLEVVAATPTSLLISWGQPMYGQPMYYYRITYGETGGNSPVQEFTVPGSKSTATISGLKPGVDYTITVYAVTKLGFFKRPISINYRTGSHHHHHH
notes: as for B1
- binding result [1]: binds

B7: CRT3-R (recombinant CRT-monobody-Rluc8 of CRT3) (designed binder, not shown: large carriers; small tags and cut ends)
chain: MASVSDVPRDLEVVAATPTSLLISWKLGFFKRYYRITYGETGGNSPVQEFTVPGSKSTATISGLKPGVDYTITVYAVTGQPMYGQPMYPISINYRT
notes: as for B5
- binding result [2]: binds
- binding result [4]: binds

B8: CRT2 recombinant CRT-monobody (designed binder)
chain: MASVSDVPRDLEVVAATPTSLLISWDAPAVTVRYYRITYGETGGNSPVQEFTVPGSKSTATISGLKPGVDYTITVYAVTKLGFFKRPISINYRTGSHHHHHH
notes: His-tagged protein from E. coli, purified on Ni-NTA; FG loop: Int alpha; BC and DE loops unchanged
- binding result [1]: binds
